Values of other authors in publication PMC10213776.
pKd: −log10 of the molar value.

Target: IL-18 (Homo sapiens) (UniProt Q14116)
Sequence (Q14116 37-193): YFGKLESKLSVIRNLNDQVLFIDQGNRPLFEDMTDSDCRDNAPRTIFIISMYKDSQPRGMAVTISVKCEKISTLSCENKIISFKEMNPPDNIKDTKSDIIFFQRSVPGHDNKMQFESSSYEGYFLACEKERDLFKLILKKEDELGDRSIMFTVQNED

Chain of IL-18BP (O95998 31-194): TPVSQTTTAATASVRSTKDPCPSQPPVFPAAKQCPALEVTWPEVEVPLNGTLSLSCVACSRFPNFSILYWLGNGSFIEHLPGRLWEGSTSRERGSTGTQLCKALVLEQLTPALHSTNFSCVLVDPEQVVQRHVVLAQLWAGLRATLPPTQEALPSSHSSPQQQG

## IL-18BP (from UniProt O95998)
  pKd: 9.40
